Results published in US20240239855A1 (CYTOKI PHARMA, published 2024).
Changes are numbered by the printed parent chain.

B1: native mature human IL-22 (hIL-22) (ligand)
chain: APISSHCRLDKSNFQQPYITNRTFMLAKEASLADNNTDVRLIGEKLFHGVSMSERCYLMKQVLNFTLEEVLFPQSDRFQPYMQEVVPFLARLSNRLSTCHIEGDDLHIQRNVQKLKDTVKKLGESGEIKAIGELDLLFMSLRNACI
B2: Derivative 2 (ligand)
chain: B1 chain with A1C
modifications: C16 monoacid attached through linker γGlu-OEG-OEG-εLys-αAc to Cys 1C
B3: Comparator 1 (ligand)
chain: B1 chain with N35Q, N64Q, L106C
modifications: C18 diacid attached through linker γGlu-OEG-OEG-C2DA-Ac to Cys 106C
B4: Comparator 2 (ligand)
chain: B1 chain with N35Q, N64Q, R95C
modifications: C18 diacid attached through linker γGlu-OEG-OEG-C2DA-Ac to Cys 95C
B5: Comparator 3 (ligand)
chain: B1 chain with L106C
modifications: C18 diacid attached through linker γGlu-OEG-OEG-C2DA-Ac to Cys 106C
B6: Comparator 19 (ligand)
chain: B1 chain with R95C
modifications: C18 diacid attached through linker γGlu-OEG-OEG-C2DA-Ac to Cys 95C
B7: Comparator 5 (ligand)
chain: GPGSGSGSCGSGSGSAPISSHCRLDKSNFQQPYITNRTFMLAKEASLADNNTDVRLIGEKLFHGVSMSERCYLMKQVLNFTLEEVLFPQSDRFQPYMQEVVPFLARLSNRLSTCHIEGDDLHIQRNVQKLKDTVKKLGESGEIKAIGELDLLFMSLRNACI
modifications: C18 diacid attached through linker γGlu-OEG-OEG-C2DA-Ac to Cys -7C (in the N-terminal peptide)
B8: Comparator 14 (ligand)
chain: B1 chain with A1G
B9: Comparator 17 (ligand)
chain: GPGCPISSHCRLDKSNFQQPYITNRTFMLAKEASLADNNTDVRLIGEKLFHGVSMSERCYLMKQVLNFTLEEVLFPQSDRFQPYMQEVVPFLARLSNRLSTCHIEGDDLHIQRNVQKLKDTVKKLGESGEIKAIGELDLLFMSLRNACI
B10: Comparator 9 (ligand)
chain: B9 chain with N38Q, N67Q
modifications: C18 diacid attached through linker γGlu-OEG-OEG-C2DA-Ac to Cys 1C
B11: Comparator 4 (ligand)
chain: B9 chain
modifications: C18 diacid attached through linker γGlu-OEG-OEG-C2DA-Ac to Cys 1C
B12: Derivative 1 (ligand)
chain: B9 chain
modifications: C16 monoacid attached through linker γGlu-OEG-OEG-εLys-αAc to Cys 1C (position 1 of hIL-22; position 4 in the sequence listing entry)
B13: Comparator 6 (ligand)
chain: B9 chain
modifications: C16 diacid attached through linker γGlu-OEG-OEG-C2DA-Ac to Cys 1C
B14: Comparator 11 (ligand)
chain: GAPISSCCRLDKSNFQQPYITNRTFMLAKEASLADQNTDVRLIGEKLFHGVSMSERCYLMKQVLQFTLEEVLFPQSDRFQPYMQEVVPFLARLSNRLSTCHIEGDDLHIQRNVQKLKDTVKKLGESGEIKAIGELDLLFMSLRNACI
modifications: C18 diacid attached through linker γGlu-OEG-OEG-C2DA-Ac to Cys 6C
B15: Comparator 7 (ligand)
chain: B7 chain
modifications: C16 diacid attached through linker γGlu-OEG-OEG-C2DA-Ac to Cys -7C (in the N-terminal peptide)
B16: Comparator 12 (ligand)
chain: B1 chain with A33C, N35Q, N64Q
modifications: C18 diacid attached through linker γGlu-OEG-OEG-C2DA-Ac to Cys 33C
B17: Comparator 18 (ligand)
chain: B9 chain with N38Q, N67Q
B18: Comparator 13 (ligand)
chain: B9 chain with N38Q, N67Q
modifications: C16 diacid attached through linker γGlu-OEG-OEG-C2DA-Ac to Cys 1C

Target: T1, human IL-22 receptor (human IL-22Ra and human IL-10Rb) on cells (human, UniProt Q8N6P7 16-574; Q08334 20-325)
T1 sequence (looked up) 1: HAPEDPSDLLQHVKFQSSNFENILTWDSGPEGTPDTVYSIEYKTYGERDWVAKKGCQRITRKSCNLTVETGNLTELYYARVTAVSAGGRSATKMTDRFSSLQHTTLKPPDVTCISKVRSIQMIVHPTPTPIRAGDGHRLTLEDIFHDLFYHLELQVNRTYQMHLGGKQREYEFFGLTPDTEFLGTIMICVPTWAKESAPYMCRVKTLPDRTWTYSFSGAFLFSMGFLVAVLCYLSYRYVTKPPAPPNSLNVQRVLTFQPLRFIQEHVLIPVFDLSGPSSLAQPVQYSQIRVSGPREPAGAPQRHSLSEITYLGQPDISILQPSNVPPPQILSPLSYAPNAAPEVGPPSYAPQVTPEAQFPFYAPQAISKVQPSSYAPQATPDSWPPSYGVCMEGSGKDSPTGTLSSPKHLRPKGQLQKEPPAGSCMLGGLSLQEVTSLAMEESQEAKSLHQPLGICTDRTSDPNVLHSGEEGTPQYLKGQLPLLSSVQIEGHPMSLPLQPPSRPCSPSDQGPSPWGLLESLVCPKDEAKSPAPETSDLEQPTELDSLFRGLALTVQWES
T1 sequence (looked up) 2: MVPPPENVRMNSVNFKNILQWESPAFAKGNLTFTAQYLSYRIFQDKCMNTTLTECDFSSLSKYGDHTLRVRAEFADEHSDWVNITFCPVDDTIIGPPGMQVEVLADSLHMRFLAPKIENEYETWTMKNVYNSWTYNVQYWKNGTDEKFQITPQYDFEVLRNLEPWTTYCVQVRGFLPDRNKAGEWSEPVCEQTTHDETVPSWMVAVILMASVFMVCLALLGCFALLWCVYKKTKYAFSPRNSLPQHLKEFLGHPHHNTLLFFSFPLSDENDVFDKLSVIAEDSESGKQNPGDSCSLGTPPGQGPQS
Test: cell-based or functional assay

For B1, which “EC50, BHK cell reporter gene assay (STAT3-induced luciferase), second laboratory” value is on record?
The value was 0.03 nM.

For B2, which “EC50, BHK cell reporter gene assay (STAT3-induced luciferase), second laboratory” value is on record?
Its value is 0.03 nM.

Target: T1, human IL-22 receptor (human IL-22Ra and …)
Test: cell-based or functional assay
Remark: another data set of the same source

How did the “EC50, BHK cell reporter gene assay (STAT3-induced luciferase)” value turn out when B1 was run?
Its value is 0.07 nM.

With B3 as the binder, how does the “EC50, BHK cell reporter gene assay (STAT3-induced luciferase)” value read?
Its value is 0.23 nM.

And the “Fold change EC50 compared to hIL-22, BHK cell reporter gene assay” value?
Its value is 3 fold.

For B4, which “EC50, BHK cell reporter gene assay (STAT3-induced luciferase)” value is on record?
The value was 0.36 nM.

And the “Fold change EC50 compared to hIL-22, BHK cell reporter gene assay” value?
Its value is 5 fold.

Target: T1, human IL-22 receptor (human IL-22Ra and …)
Test: cell-based or functional assay
Remark: another data set of the same source

B1 was tested. Which “EC50, BHK cell reporter gene assay (STAT3-induced luciferase), second laboratory” value did it give?
Its value is 0.027 nM.

Which “EC50, BHK cell reporter gene assay (STAT3-induced luciferase), second laboratory” value does the source give for B5 here?
Its value is 0.085 nM.

And the “Fold change EC50 compared to hIL-22, BHK cell reporter gene assay, second laboratory” value?
The value was 3 fold.

With B6 as the binder, how does the “EC50, BHK cell reporter gene assay (STAT3-induced luciferase), second laboratory” value read?
The value was 0.31 nM.

What about the “Fold change EC50 compared to hIL-22, BHK cell reporter gene assay, second laboratory” value of the same binder?
The value was 11 fold.

Target: T1, human IL-22 receptor (human IL-22Ra and …)
Test: cell-based or functional assay
Remark: another data set of the same source

B7 was tested. Which “EC50, HepG2 cell assay for pSTAT3 (AlphaScreen SureFire STAT3 p-Tyr705)” value (“EC50 … (AlphaScreen SureFire STAT3 p-Tyr705)” for short) did it give?
The value was 6.98 nM.

Which “EC50 … (AlphaScreen SureFire STAT3 p-Tyr705)” value does the source give for B1 here?
Its value is 3.88 nM.

B8 was tested. Which “EC50 … (AlphaScreen SureFire STAT3 p-Tyr705)” value did it give?
Its value is 4.73 nM.

B9 was tested. Which “EC50 … (AlphaScreen SureFire STAT3 p-Tyr705)” value did it give?
The value was 12.1 nM.

Which “EC50 … (AlphaScreen SureFire STAT3 p-Tyr705)” value does the source give for B10 here?
Its value is 14.9 nM.

For B11, which “EC50 … (AlphaScreen SureFire STAT3 p-Tyr705)” value is on record?
The value was 10.1 nM.

Target: T1, human IL-22 receptor (human IL-22Ra and …)
Test: cell-based or functional assay
Remark: another data set of the same source

For B1, which “EC50, BHK cell reporter gene assay (STAT3-induced luciferase)” value is on record?
The value was 0.07 nM.

With B12 as the binder, how does the “EC50, BHK cell reporter gene assay (STAT3-induced luciferase)” value read?
Its value is 0.06 nM.

Target: T1, human IL-22 receptor (human IL-22Ra and …)
Test: cell-based or functional assay
Remark: another data set of the same source

B8 was tested. Which “In vitro EC50, BHK cell reporter gene assay (STAT3-induced luciferase)” value (shortened to “In vitro EC50”) did it give?
Its value is 0.06 nM.

For B13, which “In vitro EC50” value is on record?
Its value is 0.3 nM.

How did the “In vitro EC50” value turn out when B12 was run?
The value was 0.06 nM.

How did the “In vitro EC50” value turn out when B11 was run?
The value was 0.48 nM.

Target: T1, human IL-22 receptor (human IL-22Ra and …)
Test: cell-based or functional assay
Remark: another data set of the same source

Which “fold reduction in potency compared to hIL-22, BHK cell reporter gene assay” value does the source give for B13 here?
The value was 4 fold.

With B11 as the binder, how does the “fold reduced potency compared to hIL-22, HepG2 cell assay for pSTAT3” value read?
Its value is 2.5 fold.

And the “fold reduction in potency compared to hIL-22, BHK cell reporter gene assay” value?
The value was 7 fold.

Target: T1, human IL-22 receptor (human IL-22Ra and …)
Test: cell-based or functional assay
Remark: another data set of the same source

How did the “EC50, BHK cell reporter gene assay (STAT3-induced luciferase)” value turn out when B14 was run?
Its value is 1.24 nM.

How did the “EC50, BHK cell reporter gene assay (STAT3-induced luciferase)” value turn out when B15 was run?
Its value is 0.18 nM.

How did the “EC50, BHK cell reporter gene assay (STAT3-induced luciferase)” value turn out when B1 was run?
The value was 0.07 nM.

How did the “EC50, BHK cell reporter gene assay (STAT3-induced luciferase)” value turn out when B16 was run?
The value was 0.28 nM.

How did the “EC50, BHK cell reporter gene assay (STAT3-induced luciferase)” value turn out when B8 was run?
Its value is 0.06 nM.

B17 was tested. Which “EC50, BHK cell reporter gene assay (STAT3-induced luciferase)” value did it give?
The value was 0.19 nM.

For B13, which “EC50, BHK cell reporter gene assay (STAT3-induced luciferase)” value is on record?
Its value is 0.3 nM.

With B9 as the binder, how does the “EC50, BHK cell reporter gene assay (STAT3-induced luciferase)” value read?
The value was 0.09 nM.

For B10, which “EC50, BHK cell reporter gene assay (STAT3-induced luciferase)” value is on record?
Its value is 0.61 nM.

For B18, which “EC50, BHK cell reporter gene assay (STAT3-induced luciferase)” value is on record?
Its value is 0.37 nM.

How did the “EC50, BHK cell reporter gene assay (STAT3-induced luciferase)” value turn out when B11 was run?
The value was 0.48 nM.
